“Also recorded” adds a separate entry of the source.
Key:
NCI-H460 cells = test: Assay of killing activity on lung cancer cell line (crystal violet, IC50); assay type: cell-based, human
Experimental: The NCI-H460 cells (ATCC) were cultured in flasks until logarithmic growth phase, digested with 0.25% trypsin (Amresco), collected by centrifugation (1000 rpm, 5 min), resuspended in RPMI1640 medium (Invitrogen) containing 3% fetal bovine serum (FBS), counted and adjusted to 1.5×10^5/ml cell suspension, added into 96-well culture plates (Nunc) at 100 μl/well, and incubated at 37° C. in 5% CO2 incubator overnight. The sample to be tested was diluted to a certain concentration with 1640 medium containing 3% FBS, and further diluted at 4-fold dilutions (8 dilutions). The supernatant in the culture plate was discarded, and serial dilutions of the sample to be tested was added into the plate at 100 μl/well with a negative control and blank control set aside, incubated at 37° C. under 5% CO2 for 20-24 hours. Following examination under microscope, the supernatant was discarded, each well was added 50 μl 0.05% crystal violet solution (50 mg crystal violet was dissolved in 20 ml anhydrous ethanol, and water was added to the volume of 100 ml, then stored at room temperature) and stained for 3-5 minutes. The crystal violet was carefully washed with flowing water, the remaining water was removed by spin-drying, a destaining solution (50 ml distilled water, 50 ml anhydrous ethanol, and 0.1 ml glacial acetic acid were thoroughly mixed and stored at room temperature) was added at 100 μl/well, then the reading at OD570 was measured on a microplate reader (Bio-Rad 680) (reference wavelength of 630 nm). The inhibitory concentration 50 (IC50) of each sample was calculated by a four-parameter Logistic fitting using Sigmaplot10.0 software. The IC50 for CPT and each mutant of NCPT-1, NCPT-2, and NCPT-3 were calculated, and the activity change of each mutant was represented as a ratio of the IC50 of each mutant to that of CPT (Table 1).

[1] = test system: human multiple myeloma cell line U266; test: Combination with melphalan, cell survival (ATPlite); assay type: cell-based
Experimental: FIG. 9. […] U266 cells are insensitive to CPT. At the concentration of 1 μg/ml, NCPT-1.M1 alone has a mild killing effect on U266 (<20%), but with the presence of melphalan (12.5˜50 μg/ml), both of them can cause enhanced killing effect. The cell viability was assayed with ATPlite luminescent system (PerkinElmer), the data as shown in this figure are all represented as the mean±standard deviation, n=4, #P<0.05, ##P<0.01 vs. melphalan group; *P<0.05 vs. NCPT-1.M1 group.

[2] = test system: human COLO 205 xenograft tumor; test: Inhibitory activity on human colon cancer xenograft tumors; assay type: in vivo, Balb/c nu mice
Experimental: 4 to 5 weeks old Balb/c nu mice ♂ (Institute of Experimental Animals, Chinese Academy of Medical Sciences) were subcutaneously inoculated with COLO 205 human colon tumor tissue pieces. When the tumor grew to the volume of 120 mm3, the tumor-bearing mice were divided into 4 groups (n=7/group), which were intraperitoneally injected with normal saline (negative control group), NCPT-1.M1 5 mg/kg, NCPT-1.M1 15 mg/kg and wtTRAIL 15 mg/kg once a day for 10 consecutive days. […] During the experiment, the tumor length diameter (a) and wide diameter (b) were measured every two days with a vernier caliper, and tumor volume (TV) was calculated according to the following formula: TV=½×a×b^2; From the above, the relative tumor volume (RTV) was calculated according to following formula: RTV=Vt/V0. Wherein V0 is the tumor volume measured on the day of the administration, but before administration (i.e., d0), and Vt is the tumor volume measured every time. The relative tumor proliferation rate T/C (%) is used as an evaluation index. Evaluation criteria: T/C (%)>40% means no effect; T/C (%)≦40% and the statistical significance of P<0.05 means being effective.
T/C %=RTVT/RTVC*100%. (RTVT: RTV of the treatment group; […]: RTV of the negative control group).

RPMI8226 xenograft tumor = test: Inhibitory activity on xenograft tumor of human multiple myeloma; assay type: in vivo, athymic nude mice; settings: 15 mg/kg i.p. once a day for 8 consecutive days
Experimental: FIG. 8. […] Athymic nude mice (Beijing Huafukang Biotechnology Co., Ltd.) were subcutaneously inoculated with RPMI8226 tumor cells (5×10^6/mouse). When the tumor grew to about 500 mm^3, the mice were divided into several groups, which were intraperitoneally injected with normal saline (control group), NCPT-1.M1 (15 mg/kg) and wild-type TRAIL (wtTRAIL, 15 mg/kg or 45 mg/kg) respectively once a day for 8 consecutive days. The tumor volumes were measured with a vernier caliper every two days.
Athymic nude mice (Beijing Huafukang Biotechnology Co., Ltd.) were subcutaneously inoculated with 5×10^6 RPMI8226 tumor cells/mouse. When the tumor grew to the volume of 500 mm3, the mice were divided into several groups, which were intraperitoneally injected with normal saline (negative control group), NCPT-1.M1 (15 mg/kg) and wtTRAIL (15 mg/kg or 45 mg/kg) once a day for 8 consecutive days. The tumor volumes were measured with a caliper every two days.

RPMI8226 tumor = test: Combination with melphalan and prednisone on human multiple myeloma xenograft tumor; assay type: in vivo, Balb/c nu athymic nude mice; settings: NCPT-1.M1 15 mg/kg ip x10 days; melphalan 0.75 mg/kg po x5 days; prednisone 10 mg/kg po x10 days
Experimental: Male Balb/c nu athymic nude mice (Beijing Huafukang Biotechnology Co., Ltd.) were subcutaneously inoculated with 5×10^6 RPMI8226 tumor cells/mouse. […] The tumor volumes were measured with a caliper every two days.

[3] = 5 mg/kg i.p. once a day for 10 days
[4] = 15 mg/kg i.p. once a day for 10 days

B1: NCPT-1.M1: MG+His6+NCPT-1 fusion protein, SEQ ID NO: 5 (protein)
chain: MGHHHHHHTLSSPNSKNEKALGRKINSWESSRSGHSFLSNLHLRNGELVIHEKGFYYIYSQTYFRFQEEIKENTKNDKQMVQYIYKYTSYPDPILLMKSARNSCWSKDAEYGLYSIYQGGIFELKENDRIFVSVTNEHLIDMDHEASFFGAFLVGGGGGGRVAAHITGTRGRSNT
modifications: NCPT-1.M1 polypeptide sequence
NCI-H460 cells; 20-24 hours, crystal violet
  Ratio of IC50 of mutants to IC50 of CPT (H460 cells): 0.1
NCI-H460 cells; based on IC50
  killing activity compared to that of CPT: significantly higher than that of CPT
[1]; 1 μg/ml alone, U266
  killing effect: < 20%
[1]; U266 / U266B1
  sensitivity of the cell line: insensitive
[2]; [3]
  relative tumor volume RTV: 1.39
  tumor proliferation rate T/C(%): 29.89%
  Tumor volume TV beginning: 117 ± 20.4 mm^3
  Tumor volume TV ending: 197 mm^3
[2]; [4]
  relative tumor volume RTV: 0.12
  Tumor volume TV beginning: 118 ± 21.0 mm^3
  Tumor volume TV ending: 15 mm^3
[2]; both dosage groups of NCPT-1.M1 (5, 15 mg/kg), wtTRAIL 15 mg/kg
  evaluation of efficacy (T/C ≦40% and P<0.05 means being effective): effective
RPMI8226 xenograft tumor
  Tumor growth rate compared with wtTRAIL 45 mg/kg: significantly lower than that of TRAIL group with a dose of 45 mg/kg; also recorded: significantly lower than that of wtTRAIL group with a dose of 45 mg/kg
RPMI8226 tumor
  mice in which the tumors completely disappeared: 16%

— patent US9289468B2, “Fusion protein comprising circularly permuted form of trail/Apo2L, coding gene and use thereof” (Beijing Sunbio Biotech Co. Ltd., priority 2011, dated 2016)
